The source of these data is a protein production outcome set (Wang et al. 2014).

This data set in a line: label from the status in PepcDB records.
On to “MSLNRVFIVDDDTLTCNLLKTIVEPIFGNVEAFQHPRAFLTLSLNKQDIIILDLMMPDMDGIEVIRHLAEHKSPASLILISGYDSGVLHSAETLALSCGLNVINTFTKPINTEVLTCFLTSLSNRQAEGHHHHHH”, for which the protein production result is recorded as “not failed”. Regarding “MSLNSEAKSRIACDIDFDRDGRQAGYARAPLSRNNSGWGTVEIPITVVKNGSGPTVLLTGGVHGDEYEGQIAISDLARRLRPEEVQGRVIMLPAVNMPAIQSDTRLSPVDGRDINRCFPGDPRGTFSQMLAHFLDSVILPMADISVDMHTAGHSYDSTPSTNMHYLADPALRARTLAAAEAFGAPHNVVFGGVDEGSTFTSCVERRGIVSLGTELGGWGRVNIEGVRIGKRGILNVLKHMGVIEGTPETAQRGGAAGTRHMMVREADAYVMAPRTGLFEPTHYVGEEVRTGETAGWIHFVEDVDTAPLELLYRRDGIVWFGAGPGRVTRGDAVAVVMEDYNDTWPQEGHHHHHH”, the protein production entry is listed as “not failed”. The value for “MSLPPILTSQIGPDSIELRLLVAADLEYFNGHFPEQAVLPGVTQLDWAVRLGCEHFGYSAAVANLEVLKFQQLILPGQEVTLVISHNATKEKLTFAYSDGDHRYASGRISFASKQDDGLEHHHHHH” was “failed”; that for “MSLPPSRPETLSIPEALHRAHAHWSAGQAAQAELLCQRVLAAWPGQADALHLLGLMAHAYGHLDLAIAHLRQACLAPRAPAAYSSNLAEMYRQKGLLAEAEDAARRAVAMDPALVSGWNNLGIVLQEAGKFAESLDCLERVILLQPDGAQAHNNLANTLRRLERLERAESHYRQALELDPAYAEAHSNLAFLLSAQGRHDEAAAAAQHAIELSPRLVDAYLNLAEAEMGRHRHEAALRVLDTLSTFAPQHPAALTARANVLKRVERLDEALAVARQAVVLAPRSAEAHHALAMALQTLGQTDEALPHFEQAARLPGAVAEEALVGRATLLMEAGRRDAARAAFDQALEQFPGSVQALAGRADARTFTAGDPDIAALEACLAEGERRSLRDRISAHFALGKAYLDLQDPARAFHHLDAGNRQKRSTFTYDGAASRRWMERIAEAFPPERHDPLHATGEPSALPVFIVGMPRSGTTLIEQIVSSHPQVMGAGELSALRLVVEGSGLFPDGMQRLAGEARGALFRQLGQAYLSRVAPLAQGRARLVDKMPSNFLYARLIPLILPGARIIHARRDPVDTCLSCYTKLFAGEQQFAYDQAELGALYRGYARLMAHWRAVLPPGCFIEVDYEAVVDDLEGEARRLIDFLDLPWNPACLHFHDNRRVVRTASVNQVRQPIYTTSKGRWQAYADYLGPLLEALGVEAP” was “failed”. “MSLQLDEYLRQLAPSMTQWRRDFHLHAESGWLEFRTASKVADILDGLGYQLALGRDVIDADSRMGLPDEETLARAFERAREQGAPERWLPAFEGGFAGVVATLDTGRPGPTLAFRVDMDALDLNEQHDDSHRPHRDHFASCNAGMMHACGHDGHTAIGLGLAHVLKQYAAQLNGVIKLIFQPAEEGTRGARAMVAAGVVDDVDYFTAIHIGTGVPAGTVVCGGDNFMATTKFDVQFSGVAAHAGGKPEDGRNALLAAAQAALGLHAIPPHSAGASRVNVGVMQAGTGRNVVPSSALLKVETRGESEAINQYVFERAQHVVAGAAAMYEARYELRMMGAATASAPSPAWVDYLREQAARVPGVQQAVDRIAAPAGSEDATLMMARVQARGGLASYMIFGTELSAGHHNEKFDFDESVMAVAVETLARVALNFPWQRGVEGHHHHHH”: the protein production result is “not failed”.

For “MSLQRFTNRTIVVAGAGRDIGRACAIRFAQEGANVVLTYNGAAEGAATAVAEIEKLGRSALAIKADLTNAAEVEAAISAAADKFGEIHGLVHVAGGLIARKTIAEMDEAFWHQVLDVNLTSLFLTAKTALPKMAKGGAIVTFSSQAGRDGGGPGALAYATSKGAVMTFTRGLAKEVGPKIRVNAVCPGMISTTFHDTFTKPEVRERVAGATSLKREGSSEDVAGLVAFLASDDAAYVTGACYDINGGVLFSEGHHHHHH”, the protein production result is recorded as “not failed”. The entry for “MSLQRLLQHSSNGNLADFCAGPAYSSYSTLTGSLTMDDNRRIQMLADTVATLPRGRKQLALTRSSSLSDFSWSQRKLVTVEKQDNETFGFEIQSYRPQNQNACSSEMFTLICKIQEDSPAHCAGLQAGDVLANINGVSTEGFTYKQVVDLIRSSGNLLTIETLNGTMILKRTELEAKLQVLKQTLKQKWVEYRSLQLQEHRLLHGDAANCPSLENMDLDELSLFGPLPGPGPALVDRNRLSSESSCKSWLSSMTMDSEDGYQTCVSEDSSRGAFSRQTSTDDECFIPKEGDDFLRRSSSRRNRSISNTSSGSMSPLWEGNLSSMFGTLPRKSRKGSVRKQLLKFIPGLHRAVEEEESRF” is “not failed”; for “MSLQSQPIALELIVRNHPGVMTHICGLFARRAFNVDGILCLPMKNSDKSRIWLLVQKDERLMQMVSQVEKLEDVKEVRFSDDLRVFEQMESYLN” it is “not failed”.
